The target of experiment [1] is hamster integrin α5β1 on CHO cells (hamster). In words: flow cytometry, MOCK-CHO-K1 cells. (Flow cytometry measures light scatter and fluorescence of single cells or particles in a stream.)
Experiment [2] has the same target. Put plainly: flow cytometry, CD9-CHO-K1 cells.
Experiment [3] has as its target His6-rCD9 (human) (UniProt P21926). Put plainly: ELISA, FN titrated on immobilized His6-rCD9, 2.5 mM Ca2+. (ELISA stands for enzyme-linked immunosorbent assay.)
Experiment [4] deals with purified platelet CD9 (human) (UniProt P21926). Put plainly: ELISA, FN titrated on immobilized platelet CD9, 2.5 mM CaCl2.
purified platelet CD9 (human), sequence (P21926 2-228 limits assumed): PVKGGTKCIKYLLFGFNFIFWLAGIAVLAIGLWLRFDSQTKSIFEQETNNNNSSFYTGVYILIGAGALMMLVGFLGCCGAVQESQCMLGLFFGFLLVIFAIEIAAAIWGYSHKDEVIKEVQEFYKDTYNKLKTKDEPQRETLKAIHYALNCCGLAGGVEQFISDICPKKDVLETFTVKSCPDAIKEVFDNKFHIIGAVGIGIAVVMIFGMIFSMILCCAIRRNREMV
In another experiment the target is peptide 6 (human). Put plainly: ELISA, FN 75 µg/ml on immobilized peptide (10 µM coat).
peptide 6 (human), sequence (chain, as listed by the source): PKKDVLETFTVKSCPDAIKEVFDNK
The next experiment deals with peptide 5 (human). The description is as above.
peptide 5 (human), sequence (chain, as listed by the source): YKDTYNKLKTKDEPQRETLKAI
Experiment [5] addresses His6-rCD9 (human) (UniProt P21926). In words: ELISA, absolute values, FN on immobilized His6-rCD9.
For experiment [6], the target named is hamster integrin subunit β1 on CHO cells (hamster). In words: flow cytometry, MOCK-CHO-K1 cells.
The target is the same in experiment [7]. In words: flow cytometry, CD9-CHO-B2 cells.
For experiment [8] the target is unchanged. In words: flow cytometry, MOCK-CHO-B2 cells.
The target is the same in experiment [9]. Put plainly: flow cytometry, CD9-CHO-K1 cells.

Where “and” joins values, the source holds several entries; their conditions need not be identical. Equal entries are not always repeated.

human plasma fibronectin, P02751 32-2296 (ligand), sequence (P02751 other isoform, or with tags, fused parts or gaps limits assumed): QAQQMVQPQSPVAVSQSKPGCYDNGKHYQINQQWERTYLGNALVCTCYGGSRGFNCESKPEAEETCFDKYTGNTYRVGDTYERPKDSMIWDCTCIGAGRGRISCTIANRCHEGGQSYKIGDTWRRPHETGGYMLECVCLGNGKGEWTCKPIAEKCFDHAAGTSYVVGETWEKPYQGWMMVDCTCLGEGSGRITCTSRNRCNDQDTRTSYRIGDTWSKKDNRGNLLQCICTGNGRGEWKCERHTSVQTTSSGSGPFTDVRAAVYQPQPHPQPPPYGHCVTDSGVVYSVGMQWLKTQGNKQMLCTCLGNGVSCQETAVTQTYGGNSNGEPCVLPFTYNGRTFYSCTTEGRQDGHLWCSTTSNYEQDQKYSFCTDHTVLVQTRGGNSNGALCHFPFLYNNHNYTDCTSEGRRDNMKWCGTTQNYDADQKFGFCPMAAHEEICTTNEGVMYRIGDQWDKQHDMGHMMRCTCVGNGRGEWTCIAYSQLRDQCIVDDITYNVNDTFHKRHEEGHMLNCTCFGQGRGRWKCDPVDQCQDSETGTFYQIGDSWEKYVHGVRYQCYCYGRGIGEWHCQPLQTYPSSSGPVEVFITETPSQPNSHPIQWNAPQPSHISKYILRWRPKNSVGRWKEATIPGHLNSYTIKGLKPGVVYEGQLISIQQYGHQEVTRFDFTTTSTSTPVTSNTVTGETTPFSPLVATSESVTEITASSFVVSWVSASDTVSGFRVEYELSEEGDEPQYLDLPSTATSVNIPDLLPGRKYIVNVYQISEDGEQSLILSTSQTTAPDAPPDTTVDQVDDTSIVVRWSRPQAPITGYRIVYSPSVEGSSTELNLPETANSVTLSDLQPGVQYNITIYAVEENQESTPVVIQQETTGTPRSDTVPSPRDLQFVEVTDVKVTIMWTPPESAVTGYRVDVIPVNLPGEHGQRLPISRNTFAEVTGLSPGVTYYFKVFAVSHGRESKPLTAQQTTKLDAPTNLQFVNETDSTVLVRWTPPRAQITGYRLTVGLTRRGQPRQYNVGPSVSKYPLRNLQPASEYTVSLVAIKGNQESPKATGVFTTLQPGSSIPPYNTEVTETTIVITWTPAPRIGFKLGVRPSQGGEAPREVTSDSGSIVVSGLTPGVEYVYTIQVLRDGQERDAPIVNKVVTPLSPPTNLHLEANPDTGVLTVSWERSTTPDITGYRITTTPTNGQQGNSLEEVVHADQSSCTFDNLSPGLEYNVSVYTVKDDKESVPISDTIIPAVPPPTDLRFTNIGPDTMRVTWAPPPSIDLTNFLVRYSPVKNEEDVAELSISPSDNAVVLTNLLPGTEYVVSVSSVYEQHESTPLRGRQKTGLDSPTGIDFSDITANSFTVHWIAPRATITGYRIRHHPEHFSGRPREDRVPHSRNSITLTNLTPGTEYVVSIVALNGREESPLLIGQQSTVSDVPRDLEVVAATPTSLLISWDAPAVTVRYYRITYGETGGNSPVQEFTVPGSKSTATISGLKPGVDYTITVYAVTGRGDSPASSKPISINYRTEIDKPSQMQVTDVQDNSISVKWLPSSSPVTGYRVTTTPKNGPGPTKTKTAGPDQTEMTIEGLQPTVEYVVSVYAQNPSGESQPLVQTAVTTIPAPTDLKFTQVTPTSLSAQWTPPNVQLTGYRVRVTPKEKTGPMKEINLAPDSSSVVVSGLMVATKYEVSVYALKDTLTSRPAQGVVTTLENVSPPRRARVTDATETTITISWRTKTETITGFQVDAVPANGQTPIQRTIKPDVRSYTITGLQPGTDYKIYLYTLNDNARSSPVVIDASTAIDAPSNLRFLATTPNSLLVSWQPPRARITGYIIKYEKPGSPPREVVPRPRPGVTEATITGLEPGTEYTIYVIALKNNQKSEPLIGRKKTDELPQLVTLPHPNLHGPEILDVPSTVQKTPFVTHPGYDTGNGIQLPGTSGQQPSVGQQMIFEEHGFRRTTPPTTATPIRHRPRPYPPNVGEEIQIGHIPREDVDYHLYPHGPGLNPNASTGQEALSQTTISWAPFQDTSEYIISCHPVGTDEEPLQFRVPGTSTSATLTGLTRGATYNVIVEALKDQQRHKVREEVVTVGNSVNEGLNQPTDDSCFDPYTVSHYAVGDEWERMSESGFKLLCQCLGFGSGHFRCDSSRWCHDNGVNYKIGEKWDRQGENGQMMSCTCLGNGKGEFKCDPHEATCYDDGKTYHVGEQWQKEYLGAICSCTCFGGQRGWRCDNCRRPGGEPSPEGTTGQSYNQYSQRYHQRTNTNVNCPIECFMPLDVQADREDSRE
His6-rCD9 (human), sequence (P21926 whole entry): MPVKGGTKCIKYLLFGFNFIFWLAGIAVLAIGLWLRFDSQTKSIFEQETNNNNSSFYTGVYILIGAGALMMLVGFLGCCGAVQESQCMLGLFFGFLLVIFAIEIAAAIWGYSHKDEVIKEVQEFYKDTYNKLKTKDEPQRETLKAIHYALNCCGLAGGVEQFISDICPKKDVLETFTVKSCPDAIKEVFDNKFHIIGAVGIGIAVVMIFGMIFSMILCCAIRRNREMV

Regarding antibody PB1, in experiment [1], the % positive was 100% and the Fold-increase (over isotype control) (fold MFI over isotype control) amounted to 4. Moreover, in [2], the % positive is 98% and the Fold-increase (over isotype control) (fold MFI over isotype control) is 4.

One may read the EC50 as the midpoint of the concentration-response curve. As for “human plasma fibronectin, P02751 32-2296 (ligand)”, the EC50 with His6-rCD9 (human) [3] was 120 nM; in experiment [4], 35.6 µg/mL and 81 nM. Besides, the values for the binding relative to intact platelet purified CD9 (% of binding to platelet CD9) with peptide 6 (human) and in the experiment with peptide 5 (human) were 65 and 19, respectively. This substance also showed an ELISA binding against purified CD9 (% lower than purified CD9) with His6-rCD9 (human) [5] of 40.

On to antibody 7E2, for which the % positive came out at 100% in [6], 100% in experiment [7], 100% in experiment [8] and 97% in [9]. Moreover, the Fold-increase (over isotype control) (fold MFI over isotype control) in experiment [6] was found to be 7; in experiment [7] it was 6; in experiment [8] it was 0; in experiment [9], 6.
